{
  "source": "patent US20230296621A1",
  "about": "(CHAN ZUCKERBERG BIOHUB, published 2023)",
  "target": "SARS-CoV-2 Spike receptor binding domain (SpikeRBD, aa 328-533) (SARS-CoV-2, UniProt P0DTC2 328-533)",
  "assay": "BLI on immobilised biotinylated Spike-RBD",
  "data": [
    {"binder": "C105 IgG (antibody, V domains shown) VH: QVQLVESGGGLIQPGGSLRLSCAASGFTVSSNYMSWVRQAPGKGLEWVSVIYSGGSTYYADSVKGRFTISRDNSKNTLYLQMNSLRAEDTAVYYCARGEGWELPYDYWGQGTLVTVSS VL: QSALTQPPSASGSPGQSVTISCTGTSSDVGGYKYVSWYQQHPGKAPKLMIYEVSKRPSGVPDRFSGSKSGNTASLTVSGLQAEDEADYYCSSYEGSNNFVVFGGGTKLTVLG", "values": [
      {"measurement": "binding result", "result": "binds"}
    ]},
    {"binder": "C004 IgG (antibody, V domains shown, also called recombinant anti-S-RBD antibody C004) VH: not shown VL: AIRMTQSPSSLSASVGDRVTITCQASQDISNYLNWYQQKPGKAPKLLIYDASNLETGVPSRFSGSGSGTDFTFTISSLQPEDIATYYCQQYDNLPITFGQGTRLEIKR", "values": [
      {"measurement": "binding result", "result": "binds"}
    ]}
  ]
}
